Measurements published in paper PMC3932411.

Assays:
[1] = I-V relationship; settings: glycan lost; control: untreated WT (DMSO)
[2] = whole-cell patch clamp, +100 mV; settings: glycan lost; control: untreated WT (DMSO)
[3] = I-V relationship, plateau phase; settings: glycan lost; control: wild type
[4] = cell surface biotinylation, Western blot; settings: glycan lost; control: wild type

| Substance | other: channel voltage dependence [1] | other: channel deactivation kinetics, other: deactivation slope [2] | other: channel voltage dependence [3] | localisation_or_trafficking [4] |
| --- | --- | --- | --- | --- |
| TRPM4 (TRPM4b): tunicamycin (10 μg/ml; 19 h) | no change | no change, 5265 ± 572 vs 4855 ± 379 |  |  |
| TRPM4 (TRPM4b): N992Q |  |  | no change | no change |
